Measurements from patent publication US20130224246A1.

What was measured:
[1] = biological target: MBP-LEL113-201, maltose-binding protein linked to the CD81 large extracellular loop between residues 113 to 201 (UniProt P60033); experiment: EIA: E2661-his on coated MBP-LEL113-201, detected with anti-His
[2] = biological target: MBP-LEL113-201, maltose-binding protein linked to the CD81 large extracellular loop between residues 113 to 201 (UniProt P60033); experiment: EIA: HCVpp lysate on coated MBP-LEL113-201, detected with H53

MBP-LEL113-201, maltose-binding protein linked to the CD81 large extracellular loop between residues 113 to 201, sequence (P60033 113-201 limits assumed): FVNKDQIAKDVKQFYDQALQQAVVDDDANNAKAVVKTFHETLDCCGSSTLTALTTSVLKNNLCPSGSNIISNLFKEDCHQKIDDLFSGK

E2661-his M+C459A (from UniProt P27958 384-661)
fold reduction in LEL binding [1]: 16 fold

E2661-his C452A/C459A (from UniProt P27958 384-661)
% of WT CD81-LEL binding activity retained [1]: 40%
decrease in CD81 binding activity [1]: 60%

HCVpp E2 C459A (from UniProt P27958 384-746)
CD81-binding function (reduced) [2]: 40%

HCVpp E2 C569A (from UniProt P27958 384-746)
reduction in CD81 binding ability [2]: 70%

HCVpp E2 C486A (from UniProt P27958 384-746)
% of WT LEL-binding activity retained [2]: 80%

HCVpp E2 C452A (from UniProt P27958 384-746)
CD81-binding function (reduced) [2]: 80%
